B1: mRNA-splicing (parent)
chain: GAUCCAGAUCUAACUUGGGGUGGCUUUGUCUUCUUCUUUUGCCAAUUCCACUAAUUGUUUGGG

Variants of: B1
Experiment: exon inclusion enrichment score (log2 ratio to wild type); higher = more inclusion; FAS exon 6 minigene, HEK293

Question: Which “exon inclusion enrichment score” value does the source give for C36U here?
Answer: -2.31

Question: Which “exon inclusion enrichment score” value does the source give for C36A here?
Answer: -0.688

Question: With C36G as the variant, how does the “exon inclusion enrichment score” value read?
Answer: -0.112

Question: With U55G as the variant, how does the “exon inclusion enrichment score” value read?
Answer: 0.117

Question: Which “exon inclusion enrichment score” value does the source give for U55A here?
Answer: 0.386

Question: For U55C, which “exon inclusion enrichment score” value is on record?
Answer: 0.069

Question: For U47A, which “exon inclusion enrichment score” value is on record?
Answer: -0.214

Question: Which “exon inclusion enrichment score” value does the source give for U47G here?
Answer: -1.62

Question: For U47C, which “exon inclusion enrichment score” value is on record?
Answer: -2.08

Question: With C42A as the variant, how does the “exon inclusion enrichment score” value read?
Answer: -0.179

Question: Which “exon inclusion enrichment score” value does the source give for C42G here?
Answer: -0.175

Question: Which “exon inclusion enrichment score” value does the source give for C42U here?
Answer: -1.2

Question: For U40G, which “exon inclusion enrichment score” value is on record?
Answer: 0.275

Question: With U40A as the variant, how does the “exon inclusion enrichment score” value read?
Answer: -2.39

Question: For U40C, which “exon inclusion enrichment score” value is on record?
Answer: 0.287

Question: For C48U, which “exon inclusion enrichment score” value is on record?
Answer: -2.35

Question: With C48G as the variant, how does the “exon inclusion enrichment score” value read?
Answer: -1.23

Question: Which “exon inclusion enrichment score” value does the source give for C48A here?
Answer: -1.74

Question: For U29C, which “exon inclusion enrichment score” value is on record?
Answer: 0.119

Question: Which “exon inclusion enrichment score” value does the source give for U29G here?
Answer: -3.82

Question: With U37G as the variant, how does the “exon inclusion enrichment score” value read?
Answer: 0.33

Question: With U37A as the variant, how does the “exon inclusion enrichment score” value read?
Answer: 0.26

Question: Which “exon inclusion enrichment score” value does the source give for U37C here?
Answer: 0.225

Question: Which “exon inclusion enrichment score” value does the source give for U52C here?
Answer: 0.564

Question: For U52A, which “exon inclusion enrichment score” value is on record?
Answer: 0.166

Question: With U52G as the variant, how does the “exon inclusion enrichment score” value read?
Answer: 0.635

Question: Which “exon inclusion enrichment score” value does the source give for C49G here?
Answer: 0.869

Question: With C49A as the variant, how does the “exon inclusion enrichment score” value read?
Answer: 1.46

Question: With C49U as the variant, how does the “exon inclusion enrichment score” value read?
Answer: -0.226

Question: For G41U, which “exon inclusion enrichment score” value is on record?
Answer: -1.24

Question: Which “exon inclusion enrichment score” value does the source give for G41C here?
Answer: -1.66

Question: Which “exon inclusion enrichment score” value does the source give for G41A here?
Answer: -0.772

Question: For U56A, which “exon inclusion enrichment score” value is on record?
Answer: -0.713

Question: For U56C, which “exon inclusion enrichment score” value is on record?
Answer: 0.215

Question: With U56G as the variant, how does the “exon inclusion enrichment score” value read?
Answer: 0.059

Question: Which “exon inclusion enrichment score” value does the source give for G63C here?
Answer: -6.23

Question: With G63A as the variant, how does the “exon inclusion enrichment score” value read?
Answer: -5.7

Question: With G63U as the variant, how does the “exon inclusion enrichment score” value read?
Answer: -5.1

Question: For U58G, which “exon inclusion enrichment score” value is on record?
Answer: -0.27

Question: Which “exon inclusion enrichment score” value does the source give for U58A here?
Answer: 0.099

Question: Which “exon inclusion enrichment score” value does the source give for U58C here?
Answer: -0.116

Question: For U31A, which “exon inclusion enrichment score” value is on record?
Answer: 0.242

Question: With U31C as the variant, how does the “exon inclusion enrichment score” value read?
Answer: -0.076

Question: With U31G as the variant, how does the “exon inclusion enrichment score” value read?
Answer: -1.2

Question: With A44G as the variant, how does the “exon inclusion enrichment score” value read?
Answer: 0.314

Question: For A44U, which “exon inclusion enrichment score” value is on record?
Answer: -1.32

Question: Which “exon inclusion enrichment score” value does the source give for A44C here?
Answer: -0.731

Question: Which “exon inclusion enrichment score” value does the source give for A50U here?
Answer: -1.12

Question: For A50G, which “exon inclusion enrichment score” value is on record?
Answer: 0.131

Question: With A50C as the variant, how does the “exon inclusion enrichment score” value read?
Answer: -3.91

Question: For U35A, which “exon inclusion enrichment score” value is on record?
Answer: -0.045

Question: For U35C, which “exon inclusion enrichment score” value is on record?
Answer: 0.127

Question: With U35G as the variant, how does the “exon inclusion enrichment score” value read?
Answer: 0.167

Question: With C33G as the variant, how does the “exon inclusion enrichment score” value read?
Answer: -2.4

Question: With C33U as the variant, how does the “exon inclusion enrichment score” value read?
Answer: -4.54

Question: With C33A as the variant, how does the “exon inclusion enrichment score” value read?
Answer: -3.75

Question: Which “exon inclusion enrichment score” value does the source give for U46G here?
Answer: 0.344

Question: Which “exon inclusion enrichment score” value does the source give for U46A here?
Answer: 0.041

Question: For U46C, which “exon inclusion enrichment score” value is on record?
Answer: 0.336

Question: Which “exon inclusion enrichment score” value does the source give for U59G here?
Answer: -0.228

Question: With U59A as the variant, how does the “exon inclusion enrichment score” value read?
Answer: -0.31

Question: For U59C, which “exon inclusion enrichment score” value is on record?
Answer: -0.032

Question: Which “exon inclusion enrichment score” value does the source give for U38G here?
Answer: 0.274

Question: For U38C, which “exon inclusion enrichment score” value is on record?
Answer: 0.106

Question: With U38A as the variant, how does the “exon inclusion enrichment score” value read?
Answer: -0.025

Question: With A54C as the variant, how does the “exon inclusion enrichment score” value read?
Answer: 0.187

Question: For A54U, which “exon inclusion enrichment score” value is on record?
Answer: -0.013

Question: For A54G, which “exon inclusion enrichment score” value is on record?
Answer: -0.319

Question: For C30A, which “exon inclusion enrichment score” value is on record?
Answer: -0.973

Question: For C30G, which “exon inclusion enrichment score” value is on record?
Answer: -0.286

Question: For C30U, which “exon inclusion enrichment score” value is on record?
Answer: -2.3

Question: With A53G as the variant, how does the “exon inclusion enrichment score” value read?
Answer: 0.229

Question: For A53U, which “exon inclusion enrichment score” value is on record?
Answer: -0.046

Question: With A53C as the variant, how does the “exon inclusion enrichment score” value read?
Answer: -0.152

Question: For U60A, which “exon inclusion enrichment score” value is on record?
Answer: -2.55

Question: For U60G, which “exon inclusion enrichment score” value is on record?
Answer: -0.709

Question: For U60C, which “exon inclusion enrichment score” value is on record?
Answer: -0.19

Question: Which “exon inclusion enrichment score” value does the source give for U39A here?
Answer: 0.361

Question: For U39C, which “exon inclusion enrichment score” value is on record?
Answer: 0.236

Question: Which “exon inclusion enrichment score” value does the source give for U39G here?
Answer: 0.267

Question: For G62U, which “exon inclusion enrichment score” value is on record?
Answer: -0.581

Question: Which “exon inclusion enrichment score” value does the source give for G62A here?
Answer: -0.115

Question: With G62C as the variant, how does the “exon inclusion enrichment score” value read?
Answer: -0.199

Question: Which “exon inclusion enrichment score” value does the source give for U34A here?
Answer: -0.179

Question: For U34C, which “exon inclusion enrichment score” value is on record?
Answer: -0.17

Question: With U34G as the variant, how does the “exon inclusion enrichment score” value read?
Answer: 0.283

Question: With U32G as the variant, how does the “exon inclusion enrichment score” value read?
Answer: 0.176

Question: Which “exon inclusion enrichment score” value does the source give for U32C here?
Answer: -0.05

Question: Which “exon inclusion enrichment score” value does the source give for U32A here?
Answer: -0.129

Question: For G61C, which “exon inclusion enrichment score” value is on record?
Answer: 0.061

Question: With G61U as the variant, how does the “exon inclusion enrichment score” value read?
Answer: -0.154

Question: For G61A, which “exon inclusion enrichment score” value is on record?
Answer: -1.32

Question: With G57C as the variant, how does the “exon inclusion enrichment score” value read?
Answer: -0.537

Question: Which “exon inclusion enrichment score” value does the source give for G57U here?
Answer: 0.003

Question: With G57A as the variant, how does the “exon inclusion enrichment score” value read?
Answer: -0.066

Question: For A45U, which “exon inclusion enrichment score” value is on record?
Answer: -1.33

Question: With A45C as the variant, how does the “exon inclusion enrichment score” value read?
Answer: -3.69

Question: With A45G as the variant, how does the “exon inclusion enrichment score” value read?
Answer: -0.008

Question: For C51U, which “exon inclusion enrichment score” value is on record?
Answer: -1.53

Question: With C51G as the variant, how does the “exon inclusion enrichment score” value read?
Answer: 0.038

Question: Which “exon inclusion enrichment score” value does the source give for C51A here?
Answer: -1.68

Question: With C43A as the variant, how does the “exon inclusion enrichment score” value read?
Answer: -0.47

Question: With C43U as the variant, how does the “exon inclusion enrichment score” value read?
Answer: -2.69

Question: For C43G, which “exon inclusion enrichment score” value is on record?
Answer: 0.061
